Test results: patent publication US20210347908A1 (ELPISCIENCE SUZHOU BIOPHARMA, published 2021)
One block for each binder: values may come before it.

Columns and labels:
[1] = target: T1, Fc tagged human SIRPγ ECD recombinant protein (human, UniProt Q9P1W8 29-360); assay: competitive ELISA, biotin-CD47 ECD to coated SIRPγ ECD
T1 construct: range 1-360; cloned range includes the signal peptide; also called hSIRPγ; not shown: human IgG Fc region (hFc) of the pCPC vector
Protocol: For CD47 and SIRPγ interaction blocking activity detection, antibody and biotin labeled soluble human CD47 ECD recombinant protein were co-incubated with ELISA microplate coated human SIRPγ ECD recombinant protein. After washing, horseradish peroxidase labeled streptavidin (HRP-SA, Sigma) was added and incubated at 37° C. for 1 hour. Then, 100 μl/well of TMB solution (Biotechnology) was added. After incubation for 15 minutes at room temperature, the reaction was stopped by the addition of 50 μl of 1N HCl. OD 450 nm was read. Blocking ratio and IC₅₀ was calculated. In comparison with other known anti-SIRPα antibodies, 022, 050, 055, and 074 cannot block CD47 and SIRPα interaction. In particular, all of the antibodies of the invention cannot block CD47 and SIRPγ interaction.

[2] = target: T2, 6×His tagged human SIRPα v1 ECD recombinant protein (human, UniProt P78324 31-373); assay: SPR (Biacore)
T2 construct: extracellular domain; bought; also called hSIRPα V1 (SPR antigen)

[3] = target: T3, 6×His tagged human SIRPα v2 ECD recombinant protein (human); assay: SPR (Biacore)
[4] = target: T4, 6×His tagged C57BL/6 mouse SIRPα ECD recombinant protein (mouse (C57BL/6), UniProt P97797 32-373); assay: SPR (Biacore)
T4 construct: extracellular domain; bought; also called mSIRPα (C57BL/6); mouse SIRPα (C57BL/6) ECD
T4 sequence: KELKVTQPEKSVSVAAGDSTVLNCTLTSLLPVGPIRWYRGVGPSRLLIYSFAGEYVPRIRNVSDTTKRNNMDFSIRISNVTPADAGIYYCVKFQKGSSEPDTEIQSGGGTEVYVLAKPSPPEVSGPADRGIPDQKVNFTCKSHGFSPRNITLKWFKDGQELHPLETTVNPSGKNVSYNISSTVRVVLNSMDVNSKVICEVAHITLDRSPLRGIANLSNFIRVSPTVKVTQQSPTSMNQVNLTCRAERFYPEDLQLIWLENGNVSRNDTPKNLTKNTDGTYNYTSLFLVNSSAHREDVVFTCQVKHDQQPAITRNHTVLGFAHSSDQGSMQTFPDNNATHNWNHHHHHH

[5] = target: T3, 6×His tagged human SIRPα v2 ECD …; assay: SPR (Biacore); remark: listed apart in the source
Protocol: (§1) Anti-SIRPα chimeric antibodies were characterized for binding affinity against human SIRPα v1, human SIRPα v2 and C57BL/6 mouse SIRPα using Biacore (GE). Briefly the antibodies to be tested were captured to CM5 chip (GE) using Human Antibody Capture Kit (GE). The antigens of 6×His tagged human SIRPα v1, human SIRPα v2 and C57BL/6 mouse SIRPα ECD recombinant proteins were serially diluted for multiple doses and injected at 30 μl/min for 180 s. Buffer flow was maintained for dissociation of 400 s. 3 M MgCl₂ was used for chip regeneration. The association and dissociation curves were fit with 1:1 binding model, and the Ka/Kd/KD values for each antibody were calculated.
(§2) hu035.01, the first version of humanized 035, was characterized by FACS assay using CHOK1-human SIRPα v1-1B4 cells, ELISA assay using Fc tagged human SIRPα v2 ECD recombinant protein and SPR analysis using the antigen of 6×His tagged human SIRPα v2 ECD recombinant protein (refer to methods described in Example 3.4, Example 3.3 and Example 4.3). […] In particular, hu035.01 cannot be detected to bind with C57BL/6 mouse SIRPα ECD in ELISA assay possibly due to reduced binding activity (FIG. 5B).

[6] = target: T3, 6×His tagged human SIRPα v2 ECD …; assay: SPR (Biacore), antibody captured
Protocol: as §1

[7] = target: T4, 6×His tagged C57BL/6 mouse SIRPα ECD …; assay: ELISA on coated mouse SIRPα (C57BL/6) ECD [Continued) F]
[8] = target: T5, full length human SIRPα v1 stably expressed on CHOK1 cells (human, UniProt P78324 31-504); assay: FACS on CHOK1-human SIRPα v1-1B4 cells
T5 construct: whole, on cells; also called CHOK1-human SIRPα v1-1B4 cells; CHOK1-human SIRPα v1
Protocol: Species cross reactivity of the purified hybridoma antibodies against human, cyno and mouse SIRPα was determined by FACS assay using CHOK1-human SIRPα v1-1B4 cells, CHOK1-cyno SIRPα-2A2 cells, and CHOK1-C57BL/6 mouse SIRPα-2.22 cells, which stably expressing SIRPα protein. Briefly the antibodies were incubated with 2×10⁵ target cells at 4° C. for 1 hour. After washing, fluorescence labeled anti-mouse or anti-human IgG 2nd antibody (Life Technologies) was added and incubated at 4° C. for 1 hour. Geometric median fluorescence intensity was detected and EC₅₀ was calculated. In particular, it is noted, in contrast to the other antibodies tested in the same experiment, 060 cannot bind with cyno SIRPα and 035 has cross reactivity against C57BL/6 mouse SIRPα.
as §2

[9] = target: T6, Fc tagged human SIRPβ ECD recombinant protein (human, UniProt O00241 30-371); assay: ELISA
T6 construct: range 1-371; cloned range includes the signal peptide; also called hSIRPβ; not shown: human IgG Fc region (hFc) of the pCPC vector

[10] = target: T7, Fc tagged human SIRPα v1 ECD recombinant protein (human, UniProt P78324 31-370); assay: ELISA
T7 construct: range 1-370; cloned range M1-R370 includes the signal peptide; also called hSIRPα V1; not shown: human IgG Fc region (hFc) of the pCPC vector

[11] = target: T1, Fc tagged human SIRPγ ECD recombinant …; assay: ELISA
[12] = target: T8, Fc tagged human SIRPα v2 ECD recombinant protein (human); assay: ELISA
T8 construct: range 1-369; cloned range M1-R369 includes the signal peptide; also called hSIRPα V2

[13] = target: T9, 6×His tagged human SIRPα v8 ECD recombinant protein (human); assay: ELISA
T9 construct: extracellular domain; bought; also called hSIRPα V8

- IC50 [1]: 1 nM
B1: reference antibody KWAR23 (antibody, V domains shown)
VH: EVQLQQSGAELVKPGASVKLSCTASGFNIKDYYIHWVQQRTEQGLEWIGRIDPEDGETKYAPKFQDKATITADTSSNTAYLHLSSLTSEDTAVYYCARWGAYWGQGTLVTVSS
VL: QIVLTQSPAIMSASPGEKVTLTCSASSSVSSSYLYWYQQKPGSSPKLWIYSTSNLASGVPARFSGSGSGTSYSLTISSMEAEDAASYFCHQWSSYPRTFGAGTKLELK

- Kd [2]: 1.89 nM
- Kd [3]: 1.39 nM
- Kd [4]: 5270 nM
- Kd [5]: 0.61 nM
- Kd [6]: 3.82 nM
- koff [6]: 0.000238 s⁻¹
- kon [6]: 62100 M⁻¹ s⁻¹
- EC50 (read off the curve) [7]: ~0.3 µg/mL
- EC50 (read off the curve) [8]: ~0.2 µg/mL
- EC50 [9]: 0.13 nM
- EC50 [10]: 0.16 nM
- EC50 [11]: 16.4 nM
- EC50 [12]: 0.13 nM
- EC50 [13]: 0.2 nM
B2: chimeric antibody 035c (antibody, V domains shown)
VH: QIQLVQSGPELRKPGETVKISCKASGYSFTNYAMNWVKQAPGKVLKWMGFINTYTGEPTYADDFKGRFAFSLETSASTAYLQINNLKNEDTATYFCTRTRGYYDFDGGAFDYWGQGTSLTVSS
VL: DIVMTQSQKFMSTSIGDRVSVTCKASQNVGTHLAWYQQKPGQSPKALIFSASYRYIGVPDRFTGSGSGTDFTLTITNVQSEDLAEYFCQQYNTYPLTFGAGTKLELK

- IC50 [1]: 3.4 nM
B3: reference antibody 29-AM4-5 (antibody, V domains shown)
VH: EVQLVESGGGLVQPGGSLRLSCAASGFNISYYFIHWVRQAPGKGLEWVASVYSSFGYTYYADSVKGRFTISADTSKNTAYLQMNSLRAEDTAVYYCARFTFPGLFDGFFGAYLGSLDYWGQGTLVTVSS
VL: DIQMTQSPSSLSASVGDRVTITCRASQSVSSAVAWYQQKPGKAPKLLIYSASSLYSGVPSRFSGSRSGTDFTLTISSLQPEDFATYYCQQAVNWVGALVTFGQGTKVEIK
